In this data set the test system is MS2 coat protein. Description: apparent KD of MS2 coat protein; designed switch direction (-1 OFF switch, 1 ON switch): -1; higher = weaker reporter binding. The method in brief:
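Each step of the titration lasted 0.8–1.5 h at the lowest concentration and 10–20 min at the highest. The protein, SNAP-549-labelled MS2 coat protein, went from 0.7 or 1.5 nM doubling to 3 µM over RNA switches transcribed on Illumina chips by stalled E. coli RNA polymerase. Normalised cluster fluorescence was curve-fitted, and the per-design median over clusters is given as apparent KD.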

The mark [1] stands for this setting: Eterna round: R95, input ligand: microRNA oligo, concentration not stated.
Setting [2] is: input ligand: microRNA oligo, concentration not stated.
The mark [3] stands for this setting: Eterna round: R95, input ligand: FMN 200 uM.
Setting [4] is: Eterna round: R95, input ligand: none.

The text below walks through data of the supplement of paper PMC9170038.

With “GUAAUACAUGAGGAUCACCCAUGUAAGGAUAUGCUAGCGGUCGGCUGACUGACUGCUAGCAGAAGGUACAUGAU [Mat - Mod of JL D77] (puzzle: Exclusion 1)”, the “apparent KD of MS2 coat protein” value under setting [1] was found to be 87.2 nM.

On to “GUAAUUAAUGUAGGAUAUGCAAGGCGAACCUAAGCAGAAGGACAUGUGGAUCACCCAUGUAAUGCGGUCUGCGUACAGAUCGCU [salish99_ex1_NG1_002] (Eterna round: R96, puzzle: Exclusion NG 1)”, for which the “apparent KD of MS2 coat protein” value turned out to be 507 nM (input ligand: FMN 200 uM), 103 nM under setting [2] and 60.2 nM (input ligand: none).

In the case of “GUAAUUAUAUAGGAUAUCGAUUUUAUUAUUUAACGAGAAGGAUGAACAUGAGGAUCACCCAUGUGGUAUCAUGG [JL-ex6-3.05] (puzzle: Exclusion 6)”, the “apparent KD of MS2 coat protein” value under setting [1] came to 138 nM.

As for “GUAAUUGAUGUCAGGAUAUCAGGGCCACAAUGCUAUGAGAAGGGACAUGAGGAUCACCCAUGUAAAAGUUCAUG [BmEX4 B.16] (Eterna round: R97, puzzle: Brourd's mod of Exclusion 4)”, the “apparent KD of MS2 coat protein” value worked out at 180 nM (input ligand: FMN 200 uM) and 69.8 nM (input ligand: none).

For “GUACGUAGAGGAUAUGGUUAUGAUGACAUGAGGAUCACCCAUGUUAGAGUGGGUAGAUUUCCAGAAGGCUGUGAAC [Eternabot (L1) Solution 98] (Eterna round: R97, puzzle: Exclusion 5)”, the “apparent KD of MS2 coat protein” value runs as follows: (input ligand: FMN 200 uM) 1060 nM; (input ligand: none) 1330 nM.

In the case of “GUACUGACAGGAUAUACAUGAGGAUCACCCAUGUCCUUAAGCUGACAAAAGUCAGCAAGUAGAAGGGUCUGUAC [Omei Ex3 Model Bachelor's Dilema v1] (Eterna round: R97, puzzle: Exclusion 3)”, the “apparent KD of MS2 coat protein” value reads like this: (input ligand: FMN 200 uM) 498 nM; (input ligand: none) 79.4 nM.

Consider “GUACUGAGGCUUUGCUUUAAUCGUACAUGAGGAUCACCCAUGUAGGAUAUGGUAGGCUUUGCUUACCAGAAGGACAGAGUGAUC [JL EXNG3 1.23] (Eterna round: R96, puzzle: Exclusion NG 3)”, for which the “apparent KD of MS2 coat protein” value turned out to be 148 nM (input ligand: FMN 200 uM), 121 nM under setting [2] and 162 nM (input ligand: none).

On to “GUAGAGUAAGGAUAUGCAGAAUAGGAUAGAAUGGUUAGAAUGUAGAAGGUACAUGAGGAUCACCCAUGUAAUGU [Excluse me!!!! 10 - Jieux - Exclusion 4] (puzzle: Exclusion 4)”, for which the “apparent KD of MS2 coat protein” value was determined as 20.8 nM under setting [3], 22.7 nM under setting [1] and 22.7 nM under setting [4].

For the sequence “GUAGAGUAAGGAUAUGCUGAAUAGGAUAGAAUGGUUAGAAAGUAGAAGGUACAUGAGGAUCACCCAUGUAAUGU [Excluse me!!!! 24 - Jieux - Exclusion 4] (puzzle: Exclusion 4)”, the “apparent KD of MS2 coat protein” value under setting [1] was determined as 20.3 nM.

Regarding “GUAGAGUAAGGAUAUUGAGAAUAGGAUAGAAUGGUUAGAAUCAAGAAGGUACAUGAGGAUCACCCAUGUAAUGU [Excluse me!!!! 6 - Jieux - Exclusion 4] (puzzle: Exclusion 4)”, the “apparent KD of MS2 coat protein” value was determined as 16.8 nM under setting [3], 22.2 nM under setting [1] and 19.7 nM under setting [4].

With “GUAGAGUCAGGAUAUACAGAAGAAGCAUGGAAAACAUGGAUACAUGAGGAUCACCCAUGUAGAAGGGACUCUAC [ChP 11-04-2015 #2] (puzzle: Exclusion 2)”, the “apparent KD of MS2 coat protein” value reads like this: under setting [3], 83.6 nM; under setting [1], 33.2 nM; under setting [4], 41.5 nM.

Regarding “GUAGAGUCAGGAUAUACGAGAUCGAAAGAUCGGUAGUCCUUACAUGAGGAUCACCCAUGUAGAAGGGACUCUAC [Omei mod 7 to Eli's favorate candidate (ch.parushev)] (Eterna round: R97, puzzle: Exclusion 2)”, the “apparent KD of MS2 coat protein” value was determined as 118 nM (input ligand: FMN 200 uM) and 15.8 nM (input ligand: none).

Consider “GUAGCUUCGGCUACUACAAGCUUUUUGCUCGUCUUAUUAACAUGAGGAUCACCCAUGUACAAGAGACCUCAUGUAUU [Sensor v3 - turn-off variant 2 - 13] (puzzle: Sensor v3, turn-off variant 2)”, for which the “apparent KD of MS2 coat protein” value reads like this: under setting [3], 90.4 nM; under setting [1], 15.6 nM; under setting [4], 146 nM.

“GUAGCUUCGGCUACUACAAGCUUUUUGCUCGUCUUAUUAACAUGAGGAUCACCCAUGUCAAAGAGACCUCAUGUAUU [Sensor v3 - turn-off variant 2 - 5] (puzzle: Sensor v3, turn-off variant 2)”: the “apparent KD of MS2 coat protein” value runs as follows: under setting [3], 420 nM; under setting [1], 28.2 nM; under setting [4], 462 nM.

Take “GUAUAUAGUGUGAGGAUAUGCUGGUCCUUGGAUCAGCAGAAGGCACAUGAGGAUCACCCAUGUAGUUAAAUAUG [Mat - Exclusion 4 - JL Mod - D21] (puzzle: Brourd's mod of Exclusion 4)”: the “apparent KD of MS2 coat protein” value under setting [1] turned out to be 26.3 nM.

As to “GUAUCGUGAGGAUAUCAUGAUUGACUUAGUUUAUGUCAGCGUGAGAAGGCACAUGAGGAUCACCCAUGUGAUUA [Ex4 - 3 - 7] (puzzle: Exclusion 4)”, the “apparent KD of MS2 coat protein” value under setting [1] came out at 23.1 nM.

Turning to “GUCACAUGGAUGUAGGAUCACAUGAGGAUCACCCAUGUGACUAACAAGGUUUUUGCUCAUCUUAUGACUAUGUGAAU [A Brourd mod] (Eterna round: R97, puzzle: Sensor, turn-off variant 1)”, the “apparent KD of MS2 coat protein” value is, setting by setting: (input ligand: FMN 200 uM) 91.7 nM; (input ligand: none) 103 nM.

Regarding “GUCCCACAUGAGGAUCACCCAUGUGAGGAUAUGGUUUCGCUGGCCGUAGCCAGUGGAACCAGAAGGCGCAUGAU [Mat - Exclusion 1 - JL Mod - D2] (Eterna round: R97, puzzle: Exclusion 1)”, the “apparent KD of MS2 coat protein” value runs as follows: (input ligand: FMN 200 uM) 25.2 nM; (input ligand: none) 20.3 nM.

With “GUCCGACAUGAGGAUCACCCAUGUGAGGAUAUGCGAUUAGCUGCUAGGUAGUUAGUAUGUAGAAGGUGCAUGAA [EX1 #75] (Eterna round: R97, puzzle: Exclusion 1)”, the “apparent KD of MS2 coat protein” value (input ligand: FMN 200 uM) came to 18.8 nM and the “apparent KD of MS2 coat protein” value (input ligand: none) worked out at 17.5 nM.

Regarding “GUCCUCGUGGCGCCUAAACACAUGAGGAUCACCCAUGUACAGGCUUUUUGCCGUCUUAUAAUAAAACCGAGGAUACG [Zaveonqu] (puzzle: Sensor v3, turn-off variant 1)”, the “apparent KD of MS2 coat protein” value runs as follows: under setting [3], 20.3 nM; under setting [1], 121 nM; under setting [4], 20.9 nM.

With “GUCCUGUGGCAGGAUAUGAAAACGUAGCAACGGUCAGAAGGGCCAACAUGAGGAUCACCCAUGUACCCGUAUGG [Eternabot (L1) Solution 62] (Eterna round: R97, puzzle: Exclusion 6)”, the “apparent KD of MS2 coat protein” value by setting is: (input ligand: FMN 200 uM) 24.3 nM; (input ligand: none) 19.9 nM.

Consider “GUCGAACAUGAGGAUCACCCAUGUGAGGAUAUGCGAAUUUCAUCAAAAGAUGAAAUUUGCAGAAGGCACACGAC [Omei Ex1 A15] (Eterna round: R97, puzzle: Exclusion 1)”, for which the “apparent KD of MS2 coat protein” value by setting is: (input ligand: FMN 200 uM) 26.4 nM; (input ligand: none) 23.4 nM.

Take “GUCGCAAUGCAGGAUAUCCUGCUAUUCAAGGGAGGAGAAGGGCAGACAUGAGGAUCACCCAUGUGGUCCGUGCC [Eternabot (L1) Solution 3] (Eterna round: R97, puzzle: Exclusion 6)”: the “apparent KD of MS2 coat protein” value (input ligand: FMN 200 uM) was determined as 160 nM and the “apparent KD of MS2 coat protein” value (input ligand: none) amounted to 170 nM.

Regarding “GUCGUGCGGCAGUGCUGUACGAGUACAUGAGGAUCACCCAUGUAGGAUAUGGUUCGUUUUGCGUGCUAGAAGGGCGUGCGUUGA [Excl-NG3-LRO20] (Eterna round: R96, puzzle: Exclusion NG 3)”, the “apparent KD of MS2 coat protein” value runs as follows: (input ligand: FMN 200 uM) 20 nM; under setting [2], 14 nM; (input ligand: none) 22 nM.

Regarding “GUCUAGAGAGGAUAUAUUUACAGUGUACGUCGGAUGAUCGCACUUGAGGAUCACCCAAGUAGAAGGCUCGAGGG [EX2 #31] (Eterna round: R97, puzzle: Exclusion 2)”, the “apparent KD of MS2 coat protein” value is 875 nM (input ligand: FMN 200 uM) and 1850 nM (input ligand: none).

Consider “GUGAGUAGUCAGGAUAUGCUGUACAAAAGUACAGCAGAAGGGAUUACAUGAGGAUCACCCAUGUGUACUUCAUG [Omei Ex6 B10] (Eterna round: R97, puzzle: Exclusion 6)”, for which the “apparent KD of MS2 coat protein” value is 940 nM (input ligand: FMN 200 uM) and 322 nM (input ligand: none).

Turning to “GUGAGUGGUCAGGAUAUGCUGUACAAAAGUACAGCAGAAGGGAUUACAUGAGGAUCACCCAUGUUUACUUCAUG [Omei Ex6 B4] (Eterna round: R97, puzzle: Exclusion 6)”, the “apparent KD of MS2 coat protein” value by setting is: (input ligand: FMN 200 uM) 125 nM; (input ligand: none) 90.2 nM.

Take “GUGCACGUAGGAUAUUAGAAGGAGAACAUGAGGAUCACCCAUGUUAUCCAUCACCUCCGCUAAGAAGGAUGGCCAC [EX5 C.6] (Eterna round: R97, puzzle: Exclusion 5)”: the “apparent KD of MS2 coat protein” value is, setting by setting: (input ligand: FMN 200 uM) 14.1 nM; (input ligand: none) 13 nM.

For “GUGCCGCGAGGAUAUACAGACGGGUCCAAAACGUGUCUCGGACUUGAGGAUCACCCAAGUAGAAGGCGUAUCAG [salish99_ex2_r4_619] (Eterna round: R97, puzzle: Exclusion 2)”, the “apparent KD of MS2 coat protein” value stood at 27.8 nM (input ligand: FMN 200 uM) and 21.4 nM (input ligand: none).

Take “GUGCCGCGAGGAUAUACAGACGGGUCCAUAACGUGUCUCGGACUUGAGGAUCACCCAAGUAGAAGGCGUUUCAG [salish99_ex2_r4_623] (Eterna round: R97, puzzle: Exclusion 2)”: the “apparent KD of MS2 coat protein” value came out at 19.9 nM (input ligand: FMN 200 uM) and 20.8 nM (input ligand: none).

For “GUGCGGUGAGGAUAUACGUAGGUGAAAAUCUGUGUGUUCCUACAUGAGGAUCACCCAUGUAGAAGGCAUGUCAC [LRO-Excl2-14] (puzzle: Exclusion 2)”, the “apparent KD of MS2 coat protein” value under setting [1] turned out to be 47.6 nM.
